In patent US20090297689A1:

What was measured:
casein hydrolysate = assay: cell-based or functional assay
sodium caseinate = assay: cell-based or functional assay

Work on “peptidyl arginine deiminase (PAD) of Fusarium graminearum CBS166.57, over-expressed in Aspergillus niger and purified (enzyme)” yielded an arginine (amino acid analysis, 5 microliter PAD, 3 hours) (casein hydrolysate) of 97.2%, an arginine (amino acid analysis, 50 microliter PAD, 3 hours) (casein hydrolysate) of 86.1% and an arginine (amino acid analysis, 500 microliter PAD, 3 hours) (casein hydrolysate) of 60.4%. For the same substance, the citrulline (amino acid analysis, 5 microliter PAD, 3 hours) (casein hydrolysate) was 0.9%, the citrulline (amino acid analysis, 50 microliter PAD, 3 hours) (casein hydrolysate) was 5% and the citrulline (amino acid analysis, 500 microliter PAD, 3 hours) (casein hydrolysate) was 15.1%. The ornithine (amino acid analysis, 5 microliter PAD, 3 hours) (casein hydrolysate) was 1.9%, the ornithine (amino acid analysis, 50 microliter PAD, 3 hours) (casein hydrolysate) was 8.9% and the ornithine (amino acid analysis, 500 microliter PAD, 3 hours) (casein hydrolysate) was 24.5%. The arginine (amino acid analysis, 5 microliter PAD, 3 hours) (sodium caseinate) was 97.8%, the arginine (amino acid analysis, 50 microliter PAD, 3 hours) (sodium caseinate) was 86.5% and the arginine (amino acid analysis, 500 microliter PAD, 3 hours) (sodium caseinate) was 70.2%. For the same substance, the citrulline (amino acid analysis, 5 microliter PAD, 3 hours) (sodium caseinate) was 0.8%, the citrulline (amino acid analysis, 50 microliter PAD, 3 hours) (sodium caseinate) was 4.7% and the citrulline (amino acid analysis, 500 microliter PAD, 3 hours) (sodium caseinate) was 10.5%. For the same substance, the ornithine (amino acid analysis, 5 microliter PAD, 3 hours) (sodium caseinate) was 1.3%, the ornithine (amino acid analysis, 50 microliter PAD, 3 hours) (sodium caseinate) was 8.8% and the ornithine (amino acid analysis, 500 microliter PAD, 3 hours) (sodium caseinate) was 19.3%.
